The chains are these.
B1: humanized anti-EGFR antibody 10460 (antibody, V domains shown)
VH: EVQLVESGGGLVQPGGSLRLSCAASGFAFSYSDMSWVRQAPGKRLEWVSYMSSAGDVTFYSDTVKGRFTISRDNAKNSLYLQVNSLRAEDTAVYYCVRHRDVAIDYWGQGTTVTVSS
VL: DVVMTQSPLSLPVTLGQPASISCRSSQSLVHSNGNTYLHWYQQRPGQSPRLLIYKVSNRFSGVPDRFSGSGSGTDFTLKISRVEAEDVGVYFCSQSTHVPTFGGGTKLEIK
B2: chimeric anti-HER3 antibody 5082 (antibody, V domains shown)
VH: EVQLKESGPGLVKPSQSLSLTCSVTGYSITSAYYWNWIRQFPGNKVEWMGYIGYDGRNTYNPSLKNRISITRDTSKNQFFLKLNSLTTEDTATYYCSREGDYGYSDYWGQGTTLTVS
VL: DIVMTQATSSLSASLGDRVTVSCRASQDINNYLNWYQQKPDGTVKLLIYYTSRLQSGVPSRFSGSGSGIDYSLTISNLEQEDFVTYFCQQSETLPWTFGGGTKLELKR
notes: light chain entry is full length
B3: humanized anti-HER3 antibody 10738 (antibody, V domains shown)
VH: QVQLQESGPGLVKPSQTLSLTCTVSGYSITSGFYWTWIRQHPGKGLEWMGFISYSGSNNYNPSLKNRITISVDTSKNQFSLKLSSVTAADTAVYYCARGGGYYGNLFDYWGQGTLVTVSS
VL: DIQMTQSPSSLSASVGDRVTITCRPSQDISNYVNWFQQKPGKAVKLLIFHTSRLHSGVPSRFSGSGSGTDFTFTISSLQPEDIAIYYCQQGITLPWTFGQGTKVEIK
B4: humanized anti-HER3 antibody 10810 (antibody, V domains shown)
VH: B3 VH with K44N, M49I, I68V, V93T
VL: B3 VL with V44P, F73L, I85T
B5: chimeric anti-HER3 antibody 5038 (antibody, V domains shown)
VH: EVKLVESGPGLVKPSQSLSLTCSVTGYSITSGFYWTWIRQFPGNKLEWMGFISYDGSNNYNPSLKNRISITRDTSKNQFFLKLNSVTTEDTATYYCARGGGYYGNLFDYWGQGTTLTVS
VL: DIVMTQTTSSLSASLGDRVTISCRPSQDISNYVNWFQQKPGGTVKLLIFHTSRLHSGVPSRFSGSGSGTDYSLTISTLEQEDIAIYFCQQGITLPWTFGGGTKLEIKR
notes: as for B2

As a reminder, the Kd is a measure of binding affinity in units of concentration. Higher therefore signals lower affinity. What is called koff is the rate constant with which the complex falls apart. High values mean a short-lived complex, low ones a long-lived complex. The kon is the rate constant with which the complex forms.

Changes are numbered by the printed parent chain.

T4 sequence (P70424 23-653 limits assumed): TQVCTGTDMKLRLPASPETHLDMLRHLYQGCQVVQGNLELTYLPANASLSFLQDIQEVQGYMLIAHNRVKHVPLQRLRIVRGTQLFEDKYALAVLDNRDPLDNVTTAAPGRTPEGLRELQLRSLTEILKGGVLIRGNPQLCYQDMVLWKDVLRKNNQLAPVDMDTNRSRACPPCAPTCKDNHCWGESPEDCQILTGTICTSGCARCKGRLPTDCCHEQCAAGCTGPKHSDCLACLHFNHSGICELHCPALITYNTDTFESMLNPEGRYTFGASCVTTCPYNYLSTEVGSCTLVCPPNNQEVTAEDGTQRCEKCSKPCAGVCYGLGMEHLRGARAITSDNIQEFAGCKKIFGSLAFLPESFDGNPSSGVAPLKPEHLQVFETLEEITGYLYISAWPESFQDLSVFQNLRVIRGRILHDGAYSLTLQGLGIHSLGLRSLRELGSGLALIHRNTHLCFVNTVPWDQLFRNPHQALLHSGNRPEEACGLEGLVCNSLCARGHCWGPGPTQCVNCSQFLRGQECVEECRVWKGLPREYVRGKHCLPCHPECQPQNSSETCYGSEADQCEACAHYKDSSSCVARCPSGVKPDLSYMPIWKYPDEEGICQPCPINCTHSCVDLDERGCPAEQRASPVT
T6 sequence (G7PIG5 entry or part of it): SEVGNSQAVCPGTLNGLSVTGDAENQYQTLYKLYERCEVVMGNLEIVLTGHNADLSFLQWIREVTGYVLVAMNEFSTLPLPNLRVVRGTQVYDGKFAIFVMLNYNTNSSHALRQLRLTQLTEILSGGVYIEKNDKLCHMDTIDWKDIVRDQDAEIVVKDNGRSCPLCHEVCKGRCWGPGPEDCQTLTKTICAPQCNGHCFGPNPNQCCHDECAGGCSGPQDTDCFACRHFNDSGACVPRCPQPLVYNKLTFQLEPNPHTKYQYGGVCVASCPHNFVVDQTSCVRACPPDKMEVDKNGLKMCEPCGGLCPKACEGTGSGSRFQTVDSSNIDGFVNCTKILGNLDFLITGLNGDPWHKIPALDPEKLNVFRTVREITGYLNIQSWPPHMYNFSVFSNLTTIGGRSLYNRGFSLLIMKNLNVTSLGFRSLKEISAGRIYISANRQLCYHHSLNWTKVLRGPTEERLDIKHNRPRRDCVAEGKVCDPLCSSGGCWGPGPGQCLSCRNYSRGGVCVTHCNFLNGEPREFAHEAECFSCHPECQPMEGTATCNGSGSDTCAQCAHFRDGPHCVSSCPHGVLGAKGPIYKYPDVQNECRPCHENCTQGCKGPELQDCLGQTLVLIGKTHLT

One assay deals with T1, human HER2 antigen (Sino Biologicals) (human, UniProt P04626 23-652).
T1 construct: Bought soluble antigen; also called human antigen
As to the kind of experiment: ELISA, coated hu HER2. The protocol:
(§1) Antibody-antigen binding was measured by ELISA with coated antigens. Human antigens were obtained from Sino Biologicals. All other antigens were produced in-house by transient expression in CHO or HEK293 cells. Chimeric and humanized antibodies, as well as an isotype control antibody, were incubated with the coated antigens at different concentrations. After wash, bound antibodies were detected by HRP-(horse radish peroxidase)-conjugated secondary antibodies.
As to B1, the binding result was “no binding (tested: 40 nM)”.

Consider B2, for which the binding result is “no binding (tested: 40 nM)”.

Take B3: the binding result is given as “no binding (tested: 40 nM)”.

Take B4: the binding result was “no binding (tested: 40 nM)”.

For the molecule B5, the binding result is “no binding (tested: 40 nM)”.

The next assay concerns the target T2, human HER4 antigen (human, UniProt Q15303 26-649, limits assumed).
T2 construct: Antigen coated for ELISA
T2 sequence (looked up): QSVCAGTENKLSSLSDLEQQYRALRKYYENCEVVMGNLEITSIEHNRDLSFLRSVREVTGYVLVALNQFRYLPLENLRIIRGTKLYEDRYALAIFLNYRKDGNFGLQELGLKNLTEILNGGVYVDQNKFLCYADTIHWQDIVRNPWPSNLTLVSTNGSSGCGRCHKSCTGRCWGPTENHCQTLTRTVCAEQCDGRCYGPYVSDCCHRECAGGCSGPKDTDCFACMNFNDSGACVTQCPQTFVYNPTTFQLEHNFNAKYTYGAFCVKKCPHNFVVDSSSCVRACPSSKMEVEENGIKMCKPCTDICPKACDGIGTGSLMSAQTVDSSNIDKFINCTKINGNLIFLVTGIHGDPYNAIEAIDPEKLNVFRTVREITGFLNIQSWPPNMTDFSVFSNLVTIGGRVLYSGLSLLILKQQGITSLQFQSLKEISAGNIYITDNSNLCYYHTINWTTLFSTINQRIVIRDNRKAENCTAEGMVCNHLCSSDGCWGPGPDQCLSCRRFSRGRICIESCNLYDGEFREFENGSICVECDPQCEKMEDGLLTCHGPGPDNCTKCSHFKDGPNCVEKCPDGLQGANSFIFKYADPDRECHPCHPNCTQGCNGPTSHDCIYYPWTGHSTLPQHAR
As to the kind of experiment: ELISA, coated hu HER4. The protocol: as §1
For orientation: In an ELISA, binding on a coated surface is turned into a signal by an enzyme label.
Take B1: the binding result is “no binding (tested: 40 nM)”.

For the molecule B2, the binding result is “no binding (tested: 40 nM)”.

Consider B3, for which the binding result is “no binding (tested: 40 nM)”.

With B4, the binding result is “no binding (tested: 40 nM)”.

Take B5: the binding result is “no binding (tested: 40 nM)”.

For a further assay, the target named is T3, mouse EGFR antigen (mouse, UniProt Q01279 25-647, limits assumed).
T3 construct: In-house antigen coated for ELISA; also called mouse antigen; murine EGFR
As to the kind of experiment: ELISA, coated mu EGFR. The protocol: as §1
Take B1: the binding result is “no binding (tested: 40 nM)”.

For the molecule B2, the binding result is listed as “no binding (tested: 40 nM)”.

For the molecule B3, the binding result is “no binding (tested: 40 nM)”.

As to B4, the binding result is reported as “no binding (tested: 40 nM)”.

On to B5, for which the binding result is on record as “no binding (tested: 40 nM)”.

Another assay has as its target T4, mouse HER2 antigen (mouse, UniProt P70424 23-653, limits assumed).
T4 construct: In-house antigen coated for ELISA; also called mouse antigen; murine HER2
As to the kind of experiment: ELISA, coated mu HER2. The method, then:
as §1
Turning to B1, the binding result is reported as “no binding (tested: 40 nM)”.

With B2, the binding result is “no binding (tested: 40 nM)”.

For the molecule B3, the binding result is recorded as “no binding (tested: 40 nM)”.

Regarding B4, the binding result is recorded as “no binding (tested: 40 nM)”.

For B5, the binding result is recorded as “no binding (tested: 40 nM)”.

Another assay addresses T5, murine HER4 antigen (mouse, UniProt Q61527 26-652, limits assumed).
T5 construct: In-house antigen coated for ELISA; also called mouse HER4
T5 sequence (looked up): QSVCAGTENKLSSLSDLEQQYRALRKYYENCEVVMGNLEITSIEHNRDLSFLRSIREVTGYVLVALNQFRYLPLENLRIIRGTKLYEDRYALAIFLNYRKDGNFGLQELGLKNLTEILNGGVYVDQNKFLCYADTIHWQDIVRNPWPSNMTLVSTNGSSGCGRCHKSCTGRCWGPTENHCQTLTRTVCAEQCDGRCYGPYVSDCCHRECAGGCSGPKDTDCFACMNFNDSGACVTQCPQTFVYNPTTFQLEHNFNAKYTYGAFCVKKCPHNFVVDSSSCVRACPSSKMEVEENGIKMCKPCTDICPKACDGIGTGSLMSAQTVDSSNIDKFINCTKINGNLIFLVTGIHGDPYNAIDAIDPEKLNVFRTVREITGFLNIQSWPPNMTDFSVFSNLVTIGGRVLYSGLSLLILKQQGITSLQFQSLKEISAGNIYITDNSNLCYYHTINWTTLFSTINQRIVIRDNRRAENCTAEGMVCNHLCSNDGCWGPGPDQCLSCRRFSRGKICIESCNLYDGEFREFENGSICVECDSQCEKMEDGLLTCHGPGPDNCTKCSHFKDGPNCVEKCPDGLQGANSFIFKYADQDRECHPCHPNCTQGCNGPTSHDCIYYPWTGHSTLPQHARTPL
As to the kind of experiment: ELISA, coated mu HER4. The protocol: as §1
As for B1, the binding result is “no binding (tested: 40 nM)”.

On to B2, for which the binding result was “no binding (tested: 40 nM)”.

Consider B3, for which the binding result is on record as “no binding (tested: 40 nM)”.

On to B4, for which the binding result is recorded as “no binding (tested: 40 nM)”.

On to B5, for which the binding result was “no binding (tested: 40 nM)”.

The next assay concerns the target T6, cynomolgus HER3 antigen (cynomolgus monkey, UniProt G7PIG5 20-643).
T6 construct: In-house antigen; also called cynomolgus antigen
The assay is described as follows: ELISA, coated cy HER3. The protocol: as §1
As to B1, the binding result is recorded as “no binding (tested: 40 nM)”.

For a further assay, the target named is T7, human HER3 antigen (Sino Biologicals) (human, UniProt P21860 20-643).
T7 construct: Bought soluble antigen; also called human antigen
As to the kind of experiment: ELISA, coated hu HER3. The protocol: as §1
With B1, the binding result is reported as “no binding (tested: 40 nM)”.

In a further assay the target is T6, cynomolgus HER3 antigen. As to the kind of experiment: SPR (ProteOn XPR36), IgG captured by anti-human Fc, soluble monovalent antigen, 1:1 fit. The protocol: (§2) Kinetic binding analysis of the purified humanized variants was performed on a ProteOn™ XPR36 biosensor (BioRad, USA) employing an IgG capture assay as described by Canziani et al. (Anal. Biochem. (2004) 325:301-307) that allows for measurement of antibody affinities of whole IgG molecules against soluble antigen under monovalent conditions. Briefly, approximately 5000 resonance units (RU) of a monoclonal mouse anti-human IgG Fc antibody (GE Healthcare, Denmark) was conjugated to a GLC chip surface (BioRad, USA) according to the manufacturer's instructions, followed by capture of individual antibodies of the invention or a negative control on the anti-Fc sensor surface. […] Next, 250 μl monovalent antigen (Sino Biologicals) was injected at a flow rate of 50 μl/min in serial threefold dilutions from 100 nM stock to generate response curves. The chip surface was regenerated between cycles by stripping the captured antibody/antigen complexes off the surface with a 10-second injection of 3 M MgCl₂ (GE Healthcare, Denmark) repeated three times. Finally, binding responses were fitted to a Langmuir 1:1 binding model for calculation of the on-rate (kon or ka), off-rate (koff or kd) and affinity (KD) constants using double referencing.
B2 yielded a Kd of 0.098 nM, a koff of 0.00016 s⁻¹ and a kon of 1.7e+06 M⁻¹ s⁻¹.

B3 came in with a Kd of 0.54 nM. That is a sub-nanomolar value.

B4 had a Kd of 0.71 nM, a koff of 0.00034 s⁻¹ and a kon of 470000 M⁻¹ s⁻¹.

For B5, binding was characterised by a dissociation constant (Kd) of 0.89 nM, the off-rate (koff) amounted to 0.00041 s⁻¹ and the kon is 460000 M⁻¹ s⁻¹.

The target in the next assay is T7, human HER3 antigen (Sino Biologicals). Described as above. The protocol:
as §2
Take B2: the Kd was 0.08 nM, the koff stood at 7.3e-05 s⁻¹ and the kon is 910000 M⁻¹ s⁻¹.

In turn, B4 yielded a Kd of 1.1 nM, a koff of 0.0002 s⁻¹ and a kon of 190000 M⁻¹ s⁻¹.

The molecule B5 had an equilibrium dissociation constant (Kd) of 1.6 nM, a koff of 0.00048 s⁻¹ and a kon of 300000 M⁻¹ s⁻¹.

In the next assay the target is T8, cynomolgus EGFR antigen (cynomolgus monkey, UniProt A0A2K5WK39 25-645).
T8 construct: In-house antigen; also called cynomolgus antigen
The assay is described as follows: ELISA, coated cy EGFR. The method, then:
as §1
For the molecule B2, the binding result is listed as “no binding (tested: 40 nM)”.

For B3, the binding result is given as “no binding (tested: 40 nM)”.

As for B4, the binding result is “no binding (tested: 40 nM)”.

As to B5, the binding result is given as “no binding (tested: 40 nM)”.

The target in a further assay is T9, mouse HER3 antigen (mouse, UniProt Q61526 20-641, limits assumed).
T9 construct: In-house antigen coated for ELISA; also called mouse antigen; murine HER3
T9 sequence (Q61526 20-641 limits assumed): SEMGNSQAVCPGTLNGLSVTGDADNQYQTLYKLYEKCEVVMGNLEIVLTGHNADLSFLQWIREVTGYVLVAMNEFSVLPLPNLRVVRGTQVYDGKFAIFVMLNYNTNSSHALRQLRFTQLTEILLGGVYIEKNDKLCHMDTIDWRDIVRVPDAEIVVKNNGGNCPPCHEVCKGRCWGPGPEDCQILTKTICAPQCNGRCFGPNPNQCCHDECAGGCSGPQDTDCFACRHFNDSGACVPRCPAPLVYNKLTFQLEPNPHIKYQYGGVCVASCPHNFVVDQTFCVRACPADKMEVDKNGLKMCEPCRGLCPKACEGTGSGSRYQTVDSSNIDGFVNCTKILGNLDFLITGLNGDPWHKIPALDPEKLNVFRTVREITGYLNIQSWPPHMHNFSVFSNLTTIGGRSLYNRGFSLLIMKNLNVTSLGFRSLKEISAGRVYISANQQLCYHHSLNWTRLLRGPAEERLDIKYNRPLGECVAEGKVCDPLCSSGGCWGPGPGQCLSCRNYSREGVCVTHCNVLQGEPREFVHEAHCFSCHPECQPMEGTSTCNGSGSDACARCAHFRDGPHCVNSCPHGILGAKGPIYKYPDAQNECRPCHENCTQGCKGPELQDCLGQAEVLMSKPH
The assay is described as follows: ELISA, coated mu HER3. The method, then:
as §1
As for B1, the binding result was “no binding (tested: 40 nM)”.

With B2, the binding result is “no binding (tested: 40 nM)”.

Take B3: the binding result is “no binding (tested: 40 nM)”.

As for B4, the binding result is reported as “no binding (tested: 40 nM)”.

On to B5, for which the binding result is “no binding (tested: 40 nM)”.

For the next assay, the target named is T10, human EGFR antigen (Sino Biologicals) (human, UniProt P00533 25-645).
T10 construct: Bought soluble antigen; also called human antigen
As to the kind of experiment: ELISA, coated hu EGFR. The protocol:
as §1
For the molecule B2, the binding result is “no binding (tested: 40 nM)”.

Consider B3, for which the binding result is recorded as “no binding (tested: 40 nM)”.

With B4, the binding result is reported as “no binding (tested: 40 nM)”.

Take B5: the binding result is reported as “no binding (tested: 40 nM)”.

The record behind these values is patent publication US20170165365A1 (SYMPHOGEN A S, published 2017).
